Assay results published in the DeepSol protein solubility set.

Test: soluble on expression in E. coli; label from the status in PepcDB or PDB records

Sequence	soluble on expression in E. coli
MVVRSLLRVSRLTSASCRHASLAVSSTPKPYIPSVTGVQKSMPFDNLLEQYSRVHWDDSVTYDDPNVQKLFKSLMSGSRAALASAITLVESRHPTKRAQGNMLLKMVLDEEREKYKKFGRDSMIFRVGISGSPGVGKSSFIEALGAELTENRGKKVAVLTIDPTSAMTGGSVLGDLTRMQELSRNPKAYIRQSPTSGSLGGVTRGIHEAVILCEGAGYDIVIIETVGVGQSETSVSDMCDMMCLLLSPAHGDELQGVKRGIMEMSDLLVVTKDDGDLKAKAKMTQAEYISALKFMRPRLDVWRPKVMRSSIMDKESVSEVCSSLYEFWDTIGESGDLERRRQDQMKKWMWNHVKDEIMSVFQKHPKIAHLAPKLENEIRSGKITPGLAAETMIRTFFGV	not soluble
MGSDKIHHHHHHMKLICEKELCTGCGLCAARCPKHSISLVAEELGHLYPSVDQKKCIDCGLCQKACPSLHDTVCLYPSVAYAAWSKDEEDYRSSTSGGMASVLTHYFLANVGIVYGCTVIPGIEIKHIRIDNLKDAYKLKGSKYVQSSIVDVLSQIRQDVKDGTNVLFIGTPCQVTAVKRMYEEQPDNLFLVDLICHGVPSNKWLVDYIANTLKIKADKVSSIGFRLFEAFSLCVYNDDRLIYKSGDLWTHRYEDLYYNTFIDGFTYRDSCFNCHYAKPERVSDITIGDFWGLGNETDDNYIPKHPYGISCVLPLTEKGKRLISIVKDKLNIYERPVTEAINGNDQLRFPKKKNLRIKFFRRIHKYIGVDAAYKLCVCDKIVKYKIRKIIR	not soluble
SLPIASTATQMGSNKTRIFARQPAKAPPPLAWLSRPRDPRATAIAAAGQQSSRRVSKRELESHGSATDAWTAIHGVVYDITAYFRFHPGGAEILFIEAAGKDSTAVFDEMHPWVNVAWLLKDYRIGLYAPESEDDGGDDDDDDRTMTSPE	soluble
MSLGDQKPATIYAPTVRVTPNPAWPQVSWQLLVAKPSAARIIDSPRINVRPTPGELQVYHGAGWAQPATDMLEDSVVRAFEDSGKIAAVARIGAGIRSDYKLAIDVRRFESDYAGQSLPAATIELNAKLLHSSDQRVVASRTFTVARPSSSTDTAAVAAAFEQALTQVTTELVGWTLITGQQDSQTLPRALEGHHHHHH	soluble
MAASLRSFLEQLKRQNSLYLVKKPVNPRFELGALLKKTKGTVPMFFQNIEGYDVPAVGGIVGTRENFAQALRINKSELLAKITEAITNPGETRLLPSGPVQENVLTKGFDIGKMFPIPTFHEKDSGAFITAGIVVAKDPIYGRRFTSIRRMQLNGPNNLSILIESPGLIEQYYEFERRGQAMEVAIVLGVHPAITLSSQLPTQTFGLDKYNVASRLIGEPLPVVKCKTIDLEVPADAEIVLEGRMLPYVRHPEGPFGELMGYYGPQTMQPVVEVTAVTFRNNPIFQVIFPSSYEHKLPNALMREVVLFNHVRHVVPTVQDVHLTMAGGGRCHAIISIKKTAEGQGKQAIFAALASNKDVKHVVVVNDDVDIFDPEDVEWAIATRVQADQDIIIIPGAQGTPLEPSHNLRGVSAKMGIDATYPLAEEERFARTQIPGYDQIRLEDYLTLDW	soluble
MAHHHHHHSLSDLKIARIDVFQVDLPYSGGVYYLSAGREYRSFDATIVRITTDTGIEGWGESTPFGSNYIASHPRGVRAGIATMAPSLIGLDPRRVDRINDAMDDALLGHEDAKTAIDVACWDIFGKSVGLPVCELLGGRTNTRLPLISSIYVGEPEDMRARVAKYRAKGYKGQSVKISGEPVTDAKRITAALANQQPDEFFIVDANGKLSVETALRLLRLLPHGLDFALEAPCATWRECISLRRKTDIPIIYDELATNEMSIVKILADDAAEGIDLKISKAGGLTRGRRQRDICLAAGYSVSVQETCGSDIAFAAIVHLAQTIPERSLRCILECRDMVTVKTADGAFDIQDGFATAPTTPGLGIMPRLDVLGEAVASYF	soluble
HHHHHHHSEMTPREIVSELDKHIIGQDNAKRSVAIALRNRWRRMQLNEELRHEVTPKNILMIGPTGVGKTEIARRLAKLANAPFIKVEATKFTEVGYVGKEVDSIIRDLTDAAVKMVRVQAIEKNRYRAEELAEERILDVLIPPAKNNWGQTEQQQEPSAARQAFRKKLREGQLDDKEIEIDLAAAPMGVEIMAPPGMEEMTSQLQSMFQNLGGQKQKARKLKIKDAMKLLIEEEAAKLVNPEELKQDAIDAVEQHGIVFIDEIDKICKRGESSGPDVSREGVQRDLLPLVEGCTVSTKHGMVKTDHILFIASGAFQIAKPSDLIPELQGRLPIRVELQALTTSDFERILTEPNASITVQYKALMATEGVNIEFTDSGIKRIAEAAWQVNESTENIGARRLHTVLERLMEEISYDASDLSGQNITIDADYVSKHLDALVADEDLSRFIL	soluble
MAFGLPDTAALNKAADQKTSVSMPVRGRLVMNDSGILDVQLVKTNTAGAVKVARAVLDKETGYWGYTLPAVADVPAQTIFVSPADALGANGPLTLSGPVPLPERILHTGDQISAPQATDKTVTPVADDLDFDDIILVFPPESGLKPLYVMYRSPRNMPGTVSGKGLEHHHHHH	soluble
MADENHVRLSEVQLIQSEFGHSLEECYKLAVQYYKKEHVGKQEPVGYEDRIKLLSLSKQVQHGEISDEFDNAGWLDITGNDVNKAWRELGSLSRDEAMASFVFLVDRVCPPFKGFIADKKAIKDAELKEFAPQVTEQSAQPPSLQQVDQRLFEDQRKQIQEALNAQTFHQFSAYAQEQFPGQPEQQTTLIRQLQEQHYQQYMSQVYAQQSTTPNGAEMNPEESHQHQIRRDDDSDVSDDEAGEDLPSNPAISPASLWNRQDINEFKANIKKDGHEGIIKVGHGETVTVRVPTHENGSCLFWEFATDHYDIGFGVYFEWTVADSNQVSVHVSESDDEEDYDEALEAEQAEAGGGGGGAAGQGGPGDVEAGAMQTRRVDPNKPRQDEIIPVYRRDCHEEVYAGSHRYPGRGIYLLKFDNSYSLWRSKTLYYRVYYSK	soluble
MAHHHHHHMDRLAGSFLSNGDVANASSLYNSLEKLNPTRYSRMARICRVLLNPQGVPLPHRHLDICEALLDPLVPPEVLLRDSAENVQKSFQRLAVCAHPDKNPSPSANEAFLRLTMMKDKALELLRNGVGRKCDGATEAPPGKAADSNGGKGKPKMQGSGPAVPTVAHRRRPLRPGVPLPAAATAVTSDINTAAAVSSKISQLRRTKITLNALKRKDIADDFEIFSATQRTTAVQSEVSHSDVGEDHLATTVPVMSTKERARCANRRRSQSSAPQEKTTTVPRASSPNSNPLLSSSLYYAMPVSPHKPLSPSPQTLEDPTGSVKSSGAGDRDASALYSPFIPTAAIPADSDAIRRQIDEACLRLREMRLQHTTVRLDLDLSFEAYERSKQPQ	not soluble
MGSDKIHHHHHHMMRGAPMTLRPRLICLPPAGAGPSLFRSWVQNSESIFDVVPVALPGREAHFTKPLPRDIQSLADHVTNEIIGLLQAPYALFGYSMGAVVAYELLRHLSLRRLPLPDAFYILGSNAPDRVLEGREPIHSMTSEDFQQSLVEIGGTPDEILRDREAMALFEPVLRNDFRICETYEFTPPHLPVTFPVHVFVADADHLVSWKAAGAWENCIGQDITMHGIEGSHMLPPQAFAHFIGKLGQLWQTDQVQACAVSTRTA	not soluble
AFVQEPLPFDPGALEPYGMSAKTLEFHYGKHHKGYVDNLNKLTQDTELADKSLEDVIRTTYGDAAKVGIFNNAAQVWNHTFFWNSLKPGGGGVPTGDVAARINSAFGSYDEFKAQFKNAAATQFGSGWAWLVLEAGTLKVTKTANAENPLVHGQVPLLTIDVWEHAYYLDYQNRRPDFIDNFLNQLVNWDFVAKNLAAA	soluble
MGSDKIHHHHHHMNTPAPRKRREMKIKTATVTGVRQISPDLIRFSFDCPEIVGADLGFTDHYIKILFVPAGADYSWPFDMAEIAETQPRELQPVRRTYTFRTVDTVAGTFDIDFVAHGTDGLAGPWAQQAQVGDVIAFGGPGGAWKPETTYEHYVLAGDEAAAPAIFAALEHLPAGTTAKAFIEISSNEARFNAPASDNIEVVWVPRDGATHGTLLIDALRQDGYPTKKTSWFIHGVAEMVKETRKFLFVEGNVDKADASISGYWRLGMTEDQWQASKREFNEQNEAEELALSKA	not soluble
MAKPIMAKATAVWLVDNTTLSFKQIADFVGMHELEVQGIADGDVAQGVKGFDPIANNQLTQDEIDTAQNNPLHKLKLKFNAAAQGEEKRRGPRYTPLSKRQDRPASILWLVKFHPELTDGQISKLIGTTKPTIQAIRERTHWNISNIQPIDPVALGLCKQSELDMAVQKAAAKKAADAPVMLEHHHHHH	soluble
VSVGTHPTFENSPSGTVLTSPPDGSAVDRATDAARRVVDALLRTDRGNANLERVAEELNSIAGHLEEHAPAVAERLIDMWNGEGVTRHDPVTGPENALAPPVVLEGLSDGSVRGTVTLTIPYQGPPGHVHGGVSALLLDHVLGVANAWGGKAGMTAQLSTRYHRPTPLFEPLTLTGKLMSVDGRKITTAGDIRTADGQVCVSVEGLFVDKTVPRPR	soluble
MGSDKIHHHHHHMGVSKRTVMRYQTCREPGSLSASDKFKSVEAALESHVKEEEARYSGKGRGDGSLWHHLVRVARLAEKLGRSEGLDPATCRLAGLFHDAGKFSGGTYHQDDRPEEERSVDILVELAGKHDLDRDIVDRIARSFQQLYRDGENQTPLTRVLFDADNLDKLGFLGIANYFIKTGLRGKGVSANMLYQLTAELTYARHAADCMATPAGRELALRKAPETYRFILDLLQSLRDDGIFDFKVEEVMFDQLLLDVVSPYSCECRGTLERRLWNVRGIKCLEIHLEHSCPRCEARHEIRFCTPKLRTQGEKNTGDLFRTSQLDIRQAADSYF	not soluble
QPEDLAYVIFTSGSTGQPKGVAIEHRAARTTIDDINQRFEITDTDVVLGLSALSFDLSVWDIFGGLGAGATVVLPEEDRLRDPSYWLDLCDRHEITVWNSAPPLLEMLVDYAEIDPEAAAHALRNLRMVMLSGDWIPVTLPRRLKELAPNATVMSLGGATEASIWSICHRTSDADEHGPS	not soluble
AEDIFGELFNEANNFYIRANSLQDRIDRLAVKVTQLDSTVEEVSLQDINMKKAFKSSTVQDQQVVSKNSIPNPVADIYNQSDKPPPLNILTPYRDDKKDGLKFYTDPSYFFDLWKEKMLQDTEDKRKEKRRQKEQKRIDGTTREVKKVRKARNRRQEWNMMAYDKELRPDNRLSQSVYHGASSEGSLSPDTRSHASDVTDYSYPATPNHSLHPQPVTPSYAAGDVPPHGPASQAAEHEYRPPSASARHMALNRPQQPPPPPPPQAPEGSQASAPMAPADYGMLPAQIIEYYNPSGPPPPPPPPVIPSAQTAFVSPLQMPMQPPFPASASSTHAAPPHPPSTGLLVTAPPPPGPPPPPPGPPGPGSSLSSSPMHGPPVAEAKRQEPAQPPISDARSDLLAAIRMGIQLKKVQEQREQEAKREPVGNDVATILSRRIAVEYSDSDDDSEFDENDWSD	soluble
MFHCKGLYMSDQNDKLKNLKTSSMDRRLSIAKASLLAGTRWATASATSMFSSEAEKEKKRKKAMTEQANYLVSEIGKLKGSIVKIGQMMALYGEHFLPEEITQALNTLNNQTVALAWPAIKAHLQEQLGSKLDDLIIDHEPIGTASLAQVHRATRKSDGLELVLKIQYPGVAEAIDSDMSLFKNMLKLTRMVPQTREFDQWFDEVREMMHREVSYDIEAATTRRFAERLKTDPRYAVPQIIDAYCTTKILCMTFERGVPINSPVMLSLPQERRNKLGEASLEIAVREIFEWGEMQTDPNFGNYLVRLGNGTDIQDKIVLLDFGAIRQFDEHLLSVARNLIRAGYNHSNEEMVRAMTGYSFFDSIPESIKPDMAKVFLLATEAFSCPENNPDMPTGLMDEDNRYDWKKSQLHSRVMQQASKSMASRYFSVPPKEFMFISRKFIGAYTFMTVIEAKTNVRRMISHFVK	soluble
